# Laboratory results published in patent US20090069239.
# Where “and” joins values, the source holds several entries; their conditions need not be identical. Equal values may be shown once.
# B1: iridoptin (37-kDa polypeptide expressed from the subgenic istk fragment of Chilo iridescent virus, 6xHis-tagged, Pichia-expressed) (protein)
# chain: MDLKDEFIQIIKKYSELSLKESENETKKYIQEVFNVSLSEVFIKEPSKQETLKQEPTQETGCIYIFKKGKNIGQKCGSGKSKFCYKHKKNDLNIKVNQERNIKKPIPKPIPTNKIETGSVINQNWFIGTSIGKGGFGEIYSAAKFNDHGNYKDDDFSFAIKIEPKSGPLFVEMHFYKRVIVEKEIEKFKLQKNIQYLGLPKYYGSGLYNDYRYIVMEKYDSNIDKLFRNGDLNSSTILQIGIQILNIVEYIHSKGYIHADIKGENILLKENDTSHIYLVDFGLCSRYSNG
# Biological target: protamine
protein,measurement,value
B1,"SPECIFIC ACTIVITY (CPM/µg TOTAL PROTEIN), protein kinase assay (CPM/µg total protein)",1110 and 895
same,"SPECIFIC ACTIVITY (CPM/µg TOTAL PROTEIN), protein kinase assay, mean (CPM/µg total protein)",1000
